Reference: US20060067930A1 (Genentech, published 2006)
Blank lines part the entries; values can stand above or below the binder they belong to.

Molecular target: T1, human FcγRIII (V158)
T1 construct: also called FcγRIIIA-Val158; CD16
Assay: ELISA of 2H7 variants binding to human FcγRIII (V158)

T1 sequence (chain, as listed by the source limits assumed): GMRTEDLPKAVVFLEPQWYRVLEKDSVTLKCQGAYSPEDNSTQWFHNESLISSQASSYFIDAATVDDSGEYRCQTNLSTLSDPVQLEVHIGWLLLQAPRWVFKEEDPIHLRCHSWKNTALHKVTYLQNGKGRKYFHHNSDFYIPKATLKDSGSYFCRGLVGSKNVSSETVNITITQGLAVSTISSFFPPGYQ

- binding result: binds
B1: 2H7.v16 (antibody, human IgG1, kappa)
light chain: DIQMTQSPSSLSASVGDRVTITCRASSSVSYMHWYQQKPGKAPKPLIYAPSNLASGVPSRFSGSGSGTDFTLTISSLQPEDFATYYCQQWSFNPPTFGQGTKVEIKRTVAAPSVFIFPPSDEQLKSGTASVVCLLNNFYPREAKVQWKVDNALQSGNSQESVTEQDSKDSTYSLSSTLTLSKADYEKHKVYACEVTHQGLSSPVTKSFNRGEC
heavy chain: not shown
notes: Humanized anti-CD20 antibody with no Fc changes; also called humanized 2H7v.16; 2H7 version 16

- EC50 (read off the curve): ~0.6 µg/mL
B2: 2H7.v375 (antibody, human IgG1, kappa)
light: B1 light chain
heavy: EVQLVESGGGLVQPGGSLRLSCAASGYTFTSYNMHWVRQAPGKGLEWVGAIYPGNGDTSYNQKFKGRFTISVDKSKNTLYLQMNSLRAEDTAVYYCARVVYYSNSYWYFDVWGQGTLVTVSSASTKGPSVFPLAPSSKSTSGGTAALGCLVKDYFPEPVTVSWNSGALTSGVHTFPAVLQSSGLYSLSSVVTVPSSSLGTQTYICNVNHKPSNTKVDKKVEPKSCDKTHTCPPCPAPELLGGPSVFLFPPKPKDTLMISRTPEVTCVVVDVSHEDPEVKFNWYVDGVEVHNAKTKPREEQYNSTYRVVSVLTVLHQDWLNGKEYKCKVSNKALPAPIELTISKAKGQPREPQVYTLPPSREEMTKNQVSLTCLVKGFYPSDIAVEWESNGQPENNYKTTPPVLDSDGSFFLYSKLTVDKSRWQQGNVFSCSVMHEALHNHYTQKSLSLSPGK
notes: copies: 2 + 2
